Source: the supplement of paper PMC9170038

Tested on: MS2 coat protein
Experiment: apparent KD of MS2 coat protein; designed switch direction (-1 OFF switch, 1 ON switch): -1; higher = weaker reporter binding
Procedure, shortened: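 Designed RNA switches were transcribed on Illumina chips by stalled E. coli RNA polymerase and titrated with SNAP-549-labelled MS2 coat protein from 0.7 or 1.5 nM, doubling to 3 µM. Step length ran from 0.8–1.5 h at the lowest concentration to 10–20 min at the highest. The apparent KD is the median over clusters for each design, from curve-fitted normalised cluster fluorescence.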

[1] = Eterna round: R95, input ligand: FMN 200 uM
[2] = Eterna round: R95, input ligand: microRNA oligo, concentration not stated
[3] = Eterna round: R95, input ligand: none
[4] = input ligand: microRNA oligo, concentration not stated

Sequence | apparent KD of MS2 coat protein [2] | apparent KD of MS2 coat protein (input ligand: FMN 200 uM) | apparent KD of MS2 coat protein (input ligand: none) | further results
AGUACUAACACGAGAGUGUUAGUACUAUAAGCUUGUGUUACAUGAGGAUCACCCAUGUCCUCAUAGGCUCGUCUUAA [Mat - Sensor v3 - Turn-off var 2 - D82] (puzzle: Sensor v3, turn-off variant 2) | 75.5 nM |  |  | apparent KD of MS2 coat protein [1]: 75.8 nM; apparent KD of MS2 coat protein [3]: 81.4 nM
UAUAUAUAGUAAGGAUAUGUAUUUAUUUUACAAACAGAAGGUACUGACAUGAGGAUCACCCAUGUUUUAGUGUGGGCAUGUAGA [JMF's solution 24] (Eterna round: R96, puzzle: Exclusion NG 1) |  |  |  | apparent KD of MS2 coat protein [4]: 48.8 nM
AGUAACCGUCACGAAAGUGAUGGUUACGCAAGUAAAUGUACAUGAGGAUCACCCAUGUCCUCAAUUGCUCGUCUUAU [Sensor 3 - 52] (puzzle: Sensor v3, turn-off variant 2) | 167 nM |  |  | apparent KD of MS2 coat protein [1]: 663 nM; apparent KD of MS2 coat protein [3]: 623 nM
UGAAGUAGAGGAUAUACGUGGAAAUAGAUUCAUGUUAAUCUACAUGAGGAUCACCCAUGUAGAAGGCUAUAGAU [JR_Ex2_Sub074] (Eterna round: R97, puzzle: Exclusion 2) |  | 69.3 nM | 24.3 nM | 
CUUCGACAUGAGGAUCACCCAUGUCAGGAUAUUGUGUAUCGGGUUUUUUACGGAAAGGCAAGAAGGGAUGUGUG [LRO-Excl1-07] (puzzle: Exclusion 1) | 25.4 nM |  |  | 
UUUUGGCAUGUAGGAUAUGGGUCCGAUUAGGAUUUAGAAGGACAUGAGGAUCACCCAUGUGCAUUUAAUUGGUCUUUACCUUUU [EXclNG1-LROPPY12] (Eterna round: R96, puzzle: Exclusion NG 1) |  | 130 nM | 82.5 nM | apparent KD of MS2 coat protein [4]: 82.1 nM
AAUGGGUGUGUGAGGAUAUACGAUGGCAGUUGCCAGUAGAAGGUACAUGAGGAUCACCCAUGUGUCCAAAAGUG [Aquin] (puzzle: Brourd's mod of Exclusion 4) | 11.9 nM |  |  | 
UAAACAAGCGAAAGAUCCCACAUGAGGAUCACCCAUGUGCUCGUCUUAUAAGGUACUGUGACGAAAGUCACGGUACC [Sensor 3, v1 - 91 v19] (Eterna round: R97, puzzle: Sensor, turn-off variant 1) |  | 37.9 nM | 41 nM | 
CUCGUGCAGCAAAGCUGUACGAGUACAUGAGGAUCACCCAUGUAGGAUAUGGUACGCAAAGCGUGCUAGAAGGACGUGUGUAAG [Mat - Exclusion NG 3 - Mod of JL - D92] (Eterna round: R96, puzzle: Exclusion NG 3) |  | 118 nM | 47.7 nM | apparent KD of MS2 coat protein [4]: 33.4 nM
ACGCAUUGCCUUUGGUAGUGCGUAACAUGAGGAUCACCCAUGUAGGAUAUGGUAGGCUUUGCUUACCAGAAGGACAUUAUAAAC [Mat - Exclusion NG 3 - Mod of JL - D9] (Eterna round: R96, puzzle: Exclusion NG 3) |  |  |  | apparent KD of MS2 coat protein [4]: 21.9 nM
UUAUACGUUGAGGAUAUGCGACUGUUUUAAGUUGUAGAAGGCGAUACAUGAGGAUCACCCAUGUUUAUGGGCAU [LRO-Ex6-12] (puzzle: Exclusion 6) | 169 nM |  |  | 
GGCAAUAUGUAGGAUAUCGUAAUGGAAACAUUACGAGAAGGGCAAACAUGAGGAUCACCCAUGUUCCUUAAGCC [Mat - Exclusion 6 - Eli Mod - D69] (puzzle: Exclusion 6) | 15 nM |  |  | apparent KD of MS2 coat protein [1]: 21.5 nM; apparent KD of MS2 coat protein [3]: 18.4 nM
GGAAGGUGAGGAUAUACAAAGACGGAAACGUCAGGUGAGAGACAUGAGGAUCACCCAUGUAGAAGGCACGGAGA [AK-MS2ROC-r4-exclusion2-16.1] (Eterna round: R97, puzzle: Exclusion 2) |  | 279 nM | 74.4 nM | 
CGAACUGUCUAGGAUAUACUCCCAUGCAGUUGAGUAGAAGGAGACACAUGAGGAUCACCCAUGUGACCCGAAGU [EX6 C.12] (Eterna round: R97, puzzle: Exclusion 6) |  | 25.3 nM | 19.7 nM | 
UGUGCGUAUGUGAGGAUAUGCUGGUCCUUGGAUCAGCAGAAGGCACAUGAGGAUCACCCAUGUGGUGUCGUACG [salish99_Bmod_Ex4_008] (puzzle: Brourd's mod of Exclusion 4) | 96.9 nM |  |  | 
AAGAAACAUGAGGAUCACCCAUGUGAGGAUAUGAGAAAGAAAAGAAAAGAAAGAAGACUCAGAAGGCACAAAGG [salish99-ex1_r3_040] (puzzle: Exclusion 1) | 54.7 nM |  |  | apparent KD of MS2 coat protein [1]: 152 nM; apparent KD of MS2 coat protein [3]: 120 nM

Sequence | apparent KD of MS2 coat protein [2] | apparent KD of MS2 coat protein (input ligand: FMN 200 uM) | apparent KD of MS2 coat protein (input ligand: none) | further results
ACGAUGAUCGAAAAGUGUAAAUCGACAUGAGGAUCACCCAUGUAGGAUAUGGCUACGAAAAGUAGUCAGAAGGGCAUGUCAUCA [3 Av 11 mod - 1] (Eterna round: R96, puzzle: Exclusion NG 3) |  | 36.9 nM | 31.1 nM | apparent KD of MS2 coat protein [4]: 25.7 nM
UACGAGUUAGGAUAUGCAUUGGGCUCGCUUUCCUUCGAUAAACUUGAGGAUCACCCAAGUAGAAGGAACUUGUA [Mod 35 - Jieux - Exclusion 2] (Eterna round: R97, puzzle: Exclusion 2) |  | 42.3 nM | 16.4 nM | 
AGUACUAACACGAAAGUGUUAGUACAAUAAGCUUGUGAAACAUGAGGAUCACCCAUGUCCUCUUAAGCUCGUCUUAU [salish99_TOv2_r3_047] (puzzle: Sensor v3, turn-off variant 2) | 329 nM |  |  | apparent KD of MS2 coat protein [1]: 116 nM; apparent KD of MS2 coat protein [3]: 124 nM
UGUACUAACACGAUAGUGUUAGUACUAUAAGCUUGUGUUACAUGAGGAUCACCCAUGUCCUCAUAAGCUCGUCUUGA [Mat - Sensor v3 - Turn-off var 2 - D93] (puzzle: Sensor v3, turn-off variant 2) | 712 nM |  |  | apparent KD of MS2 coat protein [1]: 32.3 nM; apparent KD of MS2 coat protein [3]: 31.2 nM
AAAUAGCAUGAGGAUAUUGAACUGUAUACAGUACGAGAAGGCAUGACAUGAGGAUCACCCAUGUUUUGUUGGGA [EX6 #4] (Eterna round: R97, puzzle: Exclusion 6) |  | 119 nM | 49 nM | 
AAAUACAAGCAAAGAUCUUACAUGAGGAUCACCCAUGUGUUCGUCUUAUAAAGUACUAUCACGAAAGUGAUAGUACA [Sensor 3, v1 - 32] (puzzle: Sensor v3, turn-off variant 1) | 89.7 nM |  |  | apparent KD of MS2 coat protein [1]: 14 nM; apparent KD of MS2 coat protein [3]: 15.4 nM
GGUACUCAAAGAGUACCAAUACGAACAUGAGGAUCACCCAUGUAGGAUAUGCUACUCAAAGAGUAGCAGAAGGACGUGUAUCUU [Far Half Aptamer v3] (Eterna round: R96, puzzle: Exclusion NG 3) |  | 60.5 nM | 30.8 nM | apparent KD of MS2 coat protein [4]: 18.9 nM
CUUUUGUGAGGAUAUCAGUAGUAAAAAUAUAAAAUUACUACUGAGAAGGCACAUGAGGAUCACCCAUGUUCCUC [salish99_ex4_r3_020] (puzzle: Exclusion 4) | 37.2 nM |  |  | 
AAAUUGGUAGAGGAUAUCGCACAGGAAACACUGCGAGAAGGCUGCACAUGAGGAUCACCCAUGUUCAGUUGCGA [EX6 #38] (Eterna round: R97, puzzle: Exclusion 6) |  | 16.7 nM | 14.8 nM | 
UAUGGGUCUACAGGAUAUUCCAGUAGAUAGAAGGGAGAAGGGUGGGCCUAUACUUGAGGAUCACCCAAGUGAAAAGGGUCAUCC [Mutated MS2 EX1.13] (Eterna round: R96, puzzle: Exclusion NG 1) |  | 27.9 nM | 36.6 nM | apparent KD of MS2 coat protein [4]: 24.8 nM
CGCACACAUGAGGAUCACCCAUGUGAGGAUAUCAUGCUUCGUAGUAAACUACGAAGUGUGAGAAGGCACAUGCA [Omei Ex1 D6] (Eterna round: R97, puzzle: Exclusion 1) |  | 169 nM | 44.4 nM | 
AAUAACAGAGGAUAUACUAUUUUAUGUGUUUGUUGUUUUAAACAUGAGGAUCACCCAUGUAGAAGGCUGAGUAA [JMF 33] (puzzle: Exclusion 2) | 21.8 nM |  |  | 
CUCAUGUGAGGAUAUGUGAUCAACCUUCUGUAUAGAUGAUGACAGAAGGCACAUGAGGAUCACCCAUGUAGAUC [Ex4 - 3 - 18] (puzzle: Exclusion 4) | 46.7 nM |  |  | 
AUUUAGCGAGGAUAUACCAACGUGAUCUUCGACUGAGCGGCACUUGAGGAUCACCCAAGUAGAAGGCGCACUAU [Onleindian] (Eterna round: R97, puzzle: Exclusion 2) |  | 346 nM | 207 nM | 
CCUCUACAUGAGGAUCACCCAUGUGAGGAUAUAAGAUUGCGGAUUCCGCACUACGGUCUUAGAAGGCGCGUGGA [Texebibia] (puzzle: Exclusion 1) | 17.2 nM |  |  | 
GUCAGGAAUGUAGGAUAUCUGCACGUUUAGUGCAGAGAAGGACAUGAGGAUCACCCAUGUAUAGUAGCUUCGGCUACACCUGAC [ENG1-A2] (Eterna round: R96, puzzle: Exclusion NG 1) |  | 19.3 nM | 15.9 nM | apparent KD of MS2 coat protein [4]: 12.5 nM
